Data set [1] has as its target Human PCNA (proliferating cell nuclear antigen) (human). In words: crystal structure; co-crystal of PCNA with a 10 bp dsDNA, hanging drop, 20 °C, 11% PEG 3350, 0.1 M sodium acetate pH 4.5; space group H3, 2.8 Å.
For the next data set, the target named is PCNA (human, UniProt P12004 1-261). In words: NMR; 1H-15N TROSY titration, T73 CSP, single-site model; text gives ~0.7 mM; NMR: 100 uM PCNA, 20 mM sodium phosphate, 50 mM NaCl, pH 7.0, 20 uM DSS, 0.01% NaN3, 5% 2H2O, 35 C. Conditions: protein: recombinant; tags: N-terminal His6 and PreScission site, cleaved; residual GPH- at N terminus; chain copies: 3; blunt.

One may read the stoichiometry N as a count of units in the complex or per binding partner. In general, Kd refers to the equilibrium constant for the complex coming apart.

Sequence of PCNA (P12004 whole entry): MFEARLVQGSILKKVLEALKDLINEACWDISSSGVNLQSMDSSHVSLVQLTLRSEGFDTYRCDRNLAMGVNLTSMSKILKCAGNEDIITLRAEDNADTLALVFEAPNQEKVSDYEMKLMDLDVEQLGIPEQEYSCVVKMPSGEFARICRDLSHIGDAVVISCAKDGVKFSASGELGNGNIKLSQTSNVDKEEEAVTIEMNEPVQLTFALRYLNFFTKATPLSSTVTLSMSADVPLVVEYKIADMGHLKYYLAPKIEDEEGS

Consider “Human PCNA (proliferating cell nuclear antigen) (natural protein)”, for which the stoichiometry N in data set [1] came out at 3.

B1: 10 bp dsDNA (dsDNA)
DNA 1: ATACGATGGG
DNA 2: CCCATCGTAT
Take B1: the dissociation constant Kd in the data set with PCNA is 700 ± 100 µM.

The record behind these values is paper PMC5234079, “Structural basis of human PCNA sliding on DNA”.
